Reference: patent US20120201811A1 (US Dept. of Health and Human Services, published 2012)
Like-named read-outs stand apart in the source and are kept apart here.

T1: HIV-1 Rev (clone BH10) (HIV-1 (isolate BH10), UniProt P04616 1-116)
T1 construct: mature; also called full-length Rev; recombinant HIV-1 Rev
T1 sequence: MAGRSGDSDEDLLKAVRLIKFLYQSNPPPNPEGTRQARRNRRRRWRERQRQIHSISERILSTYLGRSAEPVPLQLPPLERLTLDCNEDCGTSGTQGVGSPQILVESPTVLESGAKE


Columns and labels:
[1] = molecular target: T1, HIV-1 Rev (clone BH10); test: SPR (Biacore X), Rev immobilized on CM5 chip, Fab as analyte, Kd=kd/ka
[2] = molecular target: T1, HIV-1 Rev (clone BH10); test: densitometry of Coomassie-stained SDS-PAGE of the Ni-purified complex
[3] = molecular target: T1, HIV-1 Rev (clone BH10); test: SPR (Biacore X), Rev immobilized on CM5 chip, Fab as analyte, 1:1 Langmuir global fit
[4] = molecular target: T1, HIV-1 Rev (clone BH10)
[5] = molecular target: the molecule itself; test: sedimentation equilibrium ultracentrifugation, gradient fitted as a monomer-dimer system (self-association of the Fab/Rev complex); self-association of the 1:1 Fab/Rev complex, monomer-dimer fit of sedimentation equilibrium

Binder	Kd [1] [nM]	molar ratio in the purified complex [2]	koff [3] [s⁻¹]	kon [3] [M⁻¹ s⁻¹]	koff [4] [s⁻¹]	kon [4] [M⁻¹ s⁻¹]	Kd [5] [µM]
Fab SJS-R1 (chimeric rabbit/human anti-Rev Fab) (Fab, V domains shown, also called SJS-R1 Fab; Rev Fab SJS-R1) VH: QEQLVESGGRLVTPGTALTLTCKVSGFSLSGFWLNWVRQAPGKGLEWVGAIYRGSGSEWYASWAKGRFTISDTSTTVTLKLTSPTTEDTATYFCAADTTDNGYFTIWGPGTLVTVSS VL: ELVMTQTPSSVSEPVGGTVTIKCQASQSISSWLSWYQQKPGQPPKLLIYDASNLASGVPSRFMGSGSGTEYTLTISGVQREDAATYYCLGGYPAASYRTAFGGGTELEIIR	~0.04	0.9 mol Rev per mol Fab	8e-06	220000	8.3e-06	228000	–
Fab/Rev complex (1:1 complex of Fab SJS-R1 and HIV-1 Rev) (other, mature; also called Fab/Rev immune complex) light: ELVMTQTPSSVSEPVGGTVTIKCQASQSISSWLSWYQQKPGQPPKLLIYDASNLASGVPSRFMGSGSGTEYTLTISGVQREDAATYYCLGGYPAASYRTAFGGGTELEIIRTVAAPSVFIFPPSDEQLKSGTASVVCLLNNFYPREAKVQWKVDNALQSGNSQESVTEQDSKDSTYSLSSTLTLSKADYEKHKVYACEVTHQGLSSPVTKSFNRGEC heavy: QEQLVESGGRLVTPGTALTLTCKVSGFSLSGFWLNWVRQAPGKGLEWVGAIYRGSGSEWYASWAKGRFTISDTSTTVTLKLTSPTTEDTATYFCAADTTDNGYFTIWGPGTLVTVSSASTKGPSVFPLAPSAKSTSGGTAALGCLVKDYFPEPVTVSWNSGALTSGVHTFPAVLQSSGLYSLSSVVTVPSSSLGTQTYICNVNHKPSNTKVDKKAEPKSCDKTRGHHHHHH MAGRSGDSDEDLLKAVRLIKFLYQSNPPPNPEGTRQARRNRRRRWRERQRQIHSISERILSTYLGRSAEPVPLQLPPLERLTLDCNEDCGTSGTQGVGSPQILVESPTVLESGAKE	–	–	–	–	–	–	~100
scFv SJS-R1 (mature SJS-R1 scFv) (scFv, also called anti-Rev scFv; Rev scFv) scFv: AELVMTQTPSSVSEPVGGTVTIKCQASQSISSWLSWYQQKPGQPPKLLIYDASNLASGVPSRFMGSGSGTEYTLTISGVQREDAATYYCLGGYPAASYRTAFGGGTELEIIGGSSRSSSSGGGGSGGGGQEQLVESGGRLVTPGTALTLTCKVSGFSLSGFWLNWVRQAPGKGLEWVGAIYRGSGSEWYASWAKGRFTISDTSTTVTLKLTSPTTEDTATYFCAADTTDNGYFTIWGPGTLVTVSSHHHHHH	–	0.87 mol Rev per mol scFv	–	–	–	–	–
